Measured values taken from FireProtDB (doi:10.1021/bi052091o).
Where “and” joins values, the source holds several entries; their conditions need not be identical. Equal values may be shown once.

B1: Fatty acid-binding protein, intestinal, P02693 (parent)
chain: MAFDGTWKVDRNENYEKFMEKMGINVVKRKLGAHDNLKLTITQEGNKFTVKESSNFRNIDVVFELGVDFAYSLADGTELTGTWTMEGNKLVGKFKRVDNGKELIAVREISGNELIQTYTYEGVEAKRIFKKE

Variants of: B1
Details: Rattus norvegicus; pH 7; 25 °C; Urea; Fluorescence; NaPO4 25 mM; NaCl 75 mM; structure 1IFB; whole UniProt chain shown

| Variant | ddG of mutation (higher = less stable) [kcal/mol] | denaturant m value | denaturant midpoint (higher = more stable) | unfolding free energy |
| --- | --- | --- | --- | --- |
| MAFDGTYKVDRNENYEKFMEKMGINVVKRKLGAHDNLKLTITQEGNKFTVKESSNFRNIDVVFELGVDFAYSLADGTELTGTWTMEGNKLVGKFKRVDNGKELIAVREISGNELIQTYTYEGVEAKRIFKKE [W7Y] | 0.93 | 1.09 kcal/mol/M and 0.77 kcal/mol/M | 3.52 M and 3.8 M | 3.86 kcal/mol and 2.93 kcal/mol |
| MAFDGTWKVDRNENYEKFMEKMGINVVKRKLGAHDNLKLTITQEGNKFTVKESSNFRNIDVVFELGVDAAYSLADGTELTGTWTMEGNKLVGKFKRVDNGKELIAVREISGNELIQTYTYEGVEAKRIFKKE [F69A] | -1.38 | 1.76 kcal/mol/M | 3.52 M | 6.17 kcal/mol |
| MAFDGTWKVDRNENYEKFMEKMGINVVKRKLGAHDNLKLTITQEGNKFTVKESSNFRNIDVVFELGVDFAYSLADGTELTGTYTMEGNKLVGKFKRVDNGKELIAVREISGNELIQTYTYEGVEAKRIFKKE [W83Y] | -0.09 | 1.38 kcal/mol/M and 1.1 kcal/mol/M | 3.54 M and 3.6 M | 4.88 kcal/mol and 3.99 kcal/mol |
| MAFDGTWKVDRNENYEKFMEKMGINVVKRKLGAHDNLKLTITQEGNKFTVKESSNFRNIDVVFELGVDFAYSLADGTELTGTWTMEGNKLVGKAKRVDNGKELIAVREISGNELIQTYTYEGVEAKRIFKKE [F94A] | 2.42 | 1.3 kcal/mol/M and 0.77 kcal/mol/M | 1.83 M and 2.53 M | 2.37 kcal/mol and 1.94 kcal/mol |
